According to patent US20070092942:
Changes are numbered by the printed parent chain. Names may count otherwise.

B1: EBV205 (protein)
chain: MSNGDWGQSQRTRGTGPVRGIRTMDVNAPGGGSGGSALRILGTASCNQAHCKFGRFAGIQCVSNCVLYLVKSFLAGRPLTSRPELDEVLDEGARLDALMRQSGILKGHEMAQLTDVPSSVVLRGGGRVHIYRSAEIFGLVLFPAQIANSAVVQSLAEVLHGSYNGVAQFILYICDIYAGAIIIETDGSFYLFDPHCQKDAAPGTP
B2: EBV205 C61A (protein)
chain: B1 chain with C61A
B3: His6UL36^USP (protein)
chain: MGGGNNTNPGGPVHKQAGSLASRAHMIAGTPPHSTMERGGDRDIVVTGARNQFAPDLEPGGSVSCMRSSLSFLSLIFDVGPRDVLSAEAIEGCLVEGGEWTRATAGPGPPRMCSIVELPNFLEYPGARGGLRCVFSRVYGEVGFFGEPAAGLLETQCPAHTFFAGPWALRPLSYTLLTIGPLGMGLFRDGDTAYLFDPHGLPEGTPAFIAKVRAGDMYPYLTYYTRDRPDVRWAGAMVFFVPSGPEPAAPADLTAAALHLYGASETYLQDEAFSERRVAITHPLRGEIAGLGEPCVGVGPREGVGGPGPHPPTAAQSPPPTRARRDDRASETSRGTAGPSAKPEAKRPNRAPDDVWAVALKGTPPTDPPSADPPSADPPSAIPPPPPSAPKTPAAEAAEEDDDDMRVLEMGVVPVGRHRARYSAGLPKRRRPTWTPPSSVEDLTSGEKTKRSAPPAKTKKKSTPKGKTPVGAAVPASVPEPVLASAPPDPAGPPVAEAGEDDGPTVPASSQALEALKTRRSPEPPGADLAQLF

Legend:
[1] = molecular target: Ub C-terminal 7-amido-4-methylcoumarin, P0CG47
Sequence of Ub C-terminal 7-amido-4-methylcoumarin, P0CG47 (P0CG47 whole entry, looked up): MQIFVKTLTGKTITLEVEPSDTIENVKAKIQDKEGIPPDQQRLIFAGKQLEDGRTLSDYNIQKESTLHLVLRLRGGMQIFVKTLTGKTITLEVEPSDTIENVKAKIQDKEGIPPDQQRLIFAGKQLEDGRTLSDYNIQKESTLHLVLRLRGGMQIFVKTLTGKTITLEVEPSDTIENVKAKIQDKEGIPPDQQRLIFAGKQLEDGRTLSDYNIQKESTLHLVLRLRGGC

[2] = molecular target: isopeptide-linked ISG15-peptide conjugate, P05161
Sequence of isopeptide-linked ISG15-peptide conjugate, P05161 (P05161 1-157): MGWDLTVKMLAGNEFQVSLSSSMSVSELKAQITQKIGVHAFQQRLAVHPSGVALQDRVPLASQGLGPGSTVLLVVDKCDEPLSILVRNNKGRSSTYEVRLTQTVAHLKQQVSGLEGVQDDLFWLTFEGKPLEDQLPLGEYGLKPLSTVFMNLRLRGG

[3] = molecular target: isopeptide-linked Ub-peptide conjugate, P0CG47
Sequence of isopeptide-linked Ub-peptide conjugate, P0CG47 (P0CG47 whole entry, looked up, tested part not stated): as the sequence (P0CG47 whole entry, looked up) above

[4] = molecular target: isopeptide-linked Nedd8-peptide conjugate, Q15843
Sequence of isopeptide-linked Nedd8-peptide conjugate, Q15843 (Q15843 whole entry, looked up, tested part not stated): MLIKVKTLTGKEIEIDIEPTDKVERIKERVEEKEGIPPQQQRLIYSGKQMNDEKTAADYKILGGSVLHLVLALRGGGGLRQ

[5] = molecular target: His-tagged Lys^48-linked polyubiquitin, P0CG47
Sequence of His-tagged Lys^48-linked polyubiquitin, P0CG47 (P0CG47 whole entry, looked up): as the sequence (P0CG47 whole entry, looked up) above

[6] = molecular target: His-tagged Lys^63-linked polyubiquitin, P0CG47
Sequence of His-tagged Lys^63-linked polyubiquitin, P0CG47 (P0CG47 whole entry, looked up): as above

[7] = molecular target: isopeptide-linked SUMO-1-peptide conjugate, P63165
Sequence of isopeptide-linked SUMO-1-peptide conjugate, P63165 (P63165 1-97): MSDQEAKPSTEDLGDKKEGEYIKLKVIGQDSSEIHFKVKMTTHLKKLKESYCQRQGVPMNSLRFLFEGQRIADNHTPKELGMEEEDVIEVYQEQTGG

Protein	UbAMC hydrolysis [1]	isopeptidase assay, loss of biotin signal [2]	isopeptidase assay, loss of biotin signal [3]	isopeptidase assay, loss of biotin signal [4]	polyubiquitin chain depolymerization, anti-His immunoblot [5]	polyubiquitin chain depolymerization, anti-His immunoblot [6]	isopeptidase assay, loss of biotin signal [7]	Ub-AMC cleavage, turnover number [1]
B1	efficiently hydrolyzed UbAMC	–	–	–	–	–	–	–
B2	absent in the case of active site mutants	–	–	–	–	–	–	–
B3	–	Isopeptide-linked conjugates of Nedd8, ISG15 or SUMO-1 are not substrates for UL36^USP	results in cleavage of the Ub-peptide conjugate only	Isopeptide-linked conjugates of Nedd8, ISG15 or SUMO-1 are not substrates for UL36^USP	we observed deubiquitination of Lys^48-linked polyUb only	The failure of UL36^USP to cleave Lys^63-linked polyUb	Isopeptide-linked conjugates of Nedd8, ISG15 or SUMO-1 are not substrates for UL36^USP	~6 min⁻¹
